According to patent US20160272683A1 (Novo Nordisk, published 2016):
Values belong to the binder of their own block, whether it stands above or below them. Numbered stars: 1 amine (or outer) side, 2 acyl side, 3 side chain; on linkers, the order of the positions; unused ones are H or OH. * marks the point of attachment. C20 diacid = O=C(O)CCCCCCCCCCCCCCCCCCC(=O)*; C18 diacid = O=C(O)CCCCCCCCCCCCCCCCC(=O)*; γGlu = O=C(O)[C@H](CCC(=O)[*:2])N[*:1]

Molecular target: T1, human amylin receptor (human calcitonin receptor + human RAMP3) (human) (UniProt P30988)
T1 sequence (looked up) 1: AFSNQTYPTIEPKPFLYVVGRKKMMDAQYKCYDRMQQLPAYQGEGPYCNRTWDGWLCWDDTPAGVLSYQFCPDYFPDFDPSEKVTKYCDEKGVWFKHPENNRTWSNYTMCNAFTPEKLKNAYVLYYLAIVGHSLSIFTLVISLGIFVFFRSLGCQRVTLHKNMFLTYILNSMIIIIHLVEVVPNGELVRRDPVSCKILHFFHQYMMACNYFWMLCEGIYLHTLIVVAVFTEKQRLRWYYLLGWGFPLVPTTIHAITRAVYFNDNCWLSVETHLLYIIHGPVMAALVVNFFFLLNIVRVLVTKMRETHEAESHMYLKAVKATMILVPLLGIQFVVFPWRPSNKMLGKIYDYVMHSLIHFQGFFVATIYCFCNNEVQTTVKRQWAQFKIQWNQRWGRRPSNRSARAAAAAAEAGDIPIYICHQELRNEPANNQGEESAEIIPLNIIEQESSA
T1 sequence (looked up) 2: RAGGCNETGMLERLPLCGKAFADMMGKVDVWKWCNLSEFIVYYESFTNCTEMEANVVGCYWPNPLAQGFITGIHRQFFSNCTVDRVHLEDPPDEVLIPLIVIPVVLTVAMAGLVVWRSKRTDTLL
Experiment: whole-cell competition vs 125I-rat amylin (Assay Va)

Binder: {C18 diacid-γGlu}-ASELTTAVLGRLSAELHELATLPRTETGSGTP-NH2 [[N-terminal(C18 diacid-gGlu), des1, 6T, 9V, 30S, 31G, 32T]mimylin]
IC50: 0.652 nM

Binder: {C18 diacid-γGlu}-ASELTTAVLGRLSAELHELATLPRTETGTGTP-NH2 [[N-terminal(C18 diacid-gGlu), des1, 6T, 9V, 30T, 31G, 32T]mimylin]
IC50: 2.15 nM

B2: [N-terminal(C18 diacid-gGlu), des1, 5V, 9V, 10V, 30S, 31G]mimylin (peptide)
peptide: {C18 diacid-γGlu}-ASEVSTAVVGRLSAELHELATLPRTETGSGSP-NH2
SMILES: CC(C)C[C@H](NC(=O)[C@H](CCC(=O)O)NC(=O)[C@H](Cc1c[nH]cn1)NC(=O)[C@H](CC(C)C)NC(=O)[C@H](CCC(=O)O)NC(=O)[C@H](C)NC(=O)[C@H](CO)NC(=O)[C@H](CC(C)C)NC(=O)[C@H](CCCNC(=N)N)NC(=O)CNC(=O)[C@@H](NC(=O)[C@@H](NC(=O)[C@H](C)NC(=O)[C@@H](NC(=O)[C@H](CO)NC(=O)[C@@H](NC(=O)[C@H](CCC(=O)O)NC(=O)[C@H](CO)NC(=O)[C@H](C)NC(=O)CC[C@H](NC(=O)CCCCCCCCCCCCCCCCC(=O)O)C(=O)O)C(C)C)[C@@H](C)O)C(C)C)C(C)C)C(=O)N[C@@H](C)C(=O)N[C@H](C(=O)N[C@@H](CC(C)C)C(=O)N1CCC[C@H]1C(=O)N[C@@H](CCCNC(=N)N)C(=O)N[C@H](C(=O)N[C@@H](CCC(=O)O)C(=O)N[C@H](C(=O)NCC(=O)N[C@@H](CO)C(=O)NCC(=O)N[C@@H](CO)C(=O)N1CCC[C@H]1C(N)=O)[C@@H](C)O)[C@@H](C)O)[C@@H](C)O
IC50: 1.17 nM

B4: [N-terminal(C20 diacid-gGlu), des1, 9T, 21S, 23Y, 30S, 31G]mimylin (peptide)
peptide: {C20 diacid-γGlu}-ASELSTATLGRLSAELHELSTYPRTETGSGSP-NH2
SMILES: CC(C)C[C@H](NC(=O)[C@H](CCCNC(=N)N)NC(=O)CNC(=O)[C@H](CC(C)C)NC(=O)[C@@H](NC(=O)[C@H](C)NC(=O)[C@@H](NC(=O)[C@H](CO)NC(=O)[C@H](CC(C)C)NC(=O)[C@H](CCC(=O)O)NC(=O)[C@H](CO)NC(=O)[C@H](C)NC(=O)CC[C@H](NC(=O)CCCCCCCCCCCCCCCCCCC(=O)O)C(=O)O)[C@@H](C)O)[C@@H](C)O)C(=O)N[C@@H](CO)C(=O)N[C@@H](C)C(=O)N[C@@H](CCC(=O)O)C(=O)N[C@@H](CC(C)C)C(=O)N[C@@H](Cc1c[nH]cn1)C(=O)N[C@@H](CCC(=O)O)C(=O)N[C@@H](CC(C)C)C(=O)N[C@@H](CO)C(=O)N[C@H](C(=O)N[C@@H](Cc1ccc(O)cc1)C(=O)N1CCC[C@H]1C(=O)N[C@@H](CCCNC(=N)N)C(=O)N[C@H](C(=O)N[C@@H](CCC(=O)O)C(=O)N[C@H](C(=O)NCC(=O)N[C@@H](CO)C(=O)NCC(=O)N[C@@H](CO)C(=O)N1CCC[C@H]1C(N)=O)[C@@H](C)O)[C@@H](C)O)[C@@H](C)O
IC50: 2.61 nM

B5: [N-terminal(C20 diacid-gGlu), des1, 12H, 25H, 30T, 31G, 32T]mimylin (peptide)
peptide: {C20 diacid-γGlu}-ASELSTAALGHLSAELHELATLPHTETGTGTP-NH2
SMILES: CC(C)C[C@H](NC(=O)[C@H](C)NC(=O)[C@H](C)NC(=O)[C@@H](NC(=O)[C@H](CO)NC(=O)[C@H](CC(C)C)NC(=O)[C@H](CCC(=O)O)NC(=O)[C@H](CO)NC(=O)[C@H](C)NC(=O)CC[C@H](NC(=O)CCCCCCCCCCCCCCCCCCC(=O)O)C(=O)O)[C@@H](C)O)C(=O)NCC(=O)N[C@@H](Cc1c[nH]cn1)C(=O)N[C@@H](CC(C)C)C(=O)N[C@@H](CO)C(=O)N[C@@H](C)C(=O)N[C@@H](CCC(=O)O)C(=O)N[C@@H](CC(C)C)C(=O)N[C@@H](Cc1c[nH]cn1)C(=O)N[C@@H](CCC(=O)O)C(=O)N[C@@H](CC(C)C)C(=O)N[C@@H](C)C(=O)N[C@H](C(=O)N[C@@H](CC(C)C)C(=O)N1CCC[C@H]1C(=O)N[C@@H](Cc1c[nH]cn1)C(=O)N[C@H](C(=O)N[C@@H](CCC(=O)O)C(=O)N[C@H](C(=O)NCC(=O)N[C@H](C(=O)NCC(=O)N[C@H](C(=O)N1CCC[C@H]1C(N)=O)[C@@H](C)O)[C@@H](C)O)[C@@H](C)O)[C@@H](C)O)[C@@H](C)O
IC50: 1.51 nM

Continued, values first:

IC50: 0.588 nM
B1: [N-terminal(C20 diacid-gGlu), des1, 12K, 23Y, 25K, 30S, 31G, 33Y]mimylin (peptide)
peptide: {C20 diacid-γGlu}-ASELSTAALGKLSAELHELATYPKTETGSGSY-NH2
SMILES: CC(C)C[C@H](NC(=O)[C@H](C)NC(=O)[C@H](C)NC(=O)[C@@H](NC(=O)[C@H](CO)NC(=O)[C@H](CC(C)C)NC(=O)[C@H](CCC(=O)O)NC(=O)[C@H](CO)NC(=O)[C@H](C)NC(=O)CC[C@H](NC(=O)CCCCCCCCCCCCCCCCCCC(=O)O)C(=O)O)[C@@H](C)O)C(=O)NCC(=O)N[C@@H](CCCCN)C(=O)N[C@@H](CC(C)C)C(=O)N[C@@H](CO)C(=O)N[C@@H](C)C(=O)N[C@@H](CCC(=O)O)C(=O)N[C@@H](CC(C)C)C(=O)N[C@@H](Cc1c[nH]cn1)C(=O)N[C@@H](CCC(=O)O)C(=O)N[C@@H](CC(C)C)C(=O)N[C@@H](C)C(=O)N[C@H](C(=O)N[C@@H](Cc1ccc(O)cc1)C(=O)N1CCC[C@H]1C(=O)N[C@@H](CCCCN)C(=O)N[C@H](C(=O)N[C@@H](CCC(=O)O)C(=O)N[C@H](C(=O)NCC(=O)N[C@@H](CO)C(=O)NCC(=O)N[C@@H](CO)C(=O)N[C@@H](Cc1ccc(O)cc1)C(N)=O)[C@@H](C)O)[C@@H](C)O)[C@@H](C)O

IC50: 21 nM
B3: [N-terminal(C20 diacid-gGlu), des1, 23Y, 30S, 31G, 34K, C-terminal(-)]mimylin (peptide)
peptide: {C20 diacid-γGlu}-ASELSTAALGRLSAELHELATYPRTETGSGSPK-OH
SMILES: CC(C)C[C@H](NC(=O)[C@H](C)NC(=O)[C@H](C)NC(=O)[C@@H](NC(=O)[C@H](CO)NC(=O)[C@H](CC(C)C)NC(=O)[C@H](CCC(=O)O)NC(=O)[C@H](CO)NC(=O)[C@H](C)NC(=O)CC[C@H](NC(=O)CCCCCCCCCCCCCCCCCCC(=O)O)C(=O)O)[C@@H](C)O)C(=O)NCC(=O)N[C@@H](CCCNC(=N)N)C(=O)N[C@@H](CC(C)C)C(=O)N[C@@H](CO)C(=O)N[C@@H](C)C(=O)N[C@@H](CCC(=O)O)C(=O)N[C@@H](CC(C)C)C(=O)N[C@@H](Cc1c[nH]cn1)C(=O)N[C@@H](CCC(=O)O)C(=O)N[C@@H](CC(C)C)C(=O)N[C@@H](C)C(=O)N[C@H](C(=O)N[C@@H](Cc1ccc(O)cc1)C(=O)N1CCC[C@H]1C(=O)N[C@@H](CCCNC(=N)N)C(=O)N[C@H](C(=O)N[C@@H](CCC(=O)O)C(=O)N[C@H](C(=O)NCC(=O)N[C@@H](CO)C(=O)NCC(=O)N[C@@H](CO)C(=O)N1CCC[C@H]1C(=O)N[C@@H](CCCCN)C(=O)O)[C@@H](C)O)[C@@H](C)O)[C@@H](C)O

IC50: 0.186 nM
B6: [N-terminal(C20 diacid-gGlu), des1, 21S, 23Y, 30S, 31G, 33Y]mimylin (peptide)
peptide: {C20 diacid-γGlu}-ASELSTAALGRLSAELHELSTYPRTETGSGSY-NH2
SMILES: CC(C)C[C@H](NC(=O)[C@H](C)NC(=O)[C@H](C)NC(=O)[C@@H](NC(=O)[C@H](CO)NC(=O)[C@H](CC(C)C)NC(=O)[C@H](CCC(=O)O)NC(=O)[C@H](CO)NC(=O)[C@H](C)NC(=O)CC[C@H](NC(=O)CCCCCCCCCCCCCCCCCCC(=O)O)C(=O)O)[C@@H](C)O)C(=O)NCC(=O)N[C@@H](CCCNC(=N)N)C(=O)N[C@@H](CC(C)C)C(=O)N[C@@H](CO)C(=O)N[C@@H](C)C(=O)N[C@@H](CCC(=O)O)C(=O)N[C@@H](CC(C)C)C(=O)N[C@@H](Cc1c[nH]cn1)C(=O)N[C@@H](CCC(=O)O)C(=O)N[C@@H](CC(C)C)C(=O)N[C@@H](CO)C(=O)N[C@H](C(=O)N[C@@H](Cc1ccc(O)cc1)C(=O)N1CCC[C@H]1C(=O)N[C@@H](CCCNC(=N)N)C(=O)N[C@H](C(=O)N[C@@H](CCC(=O)O)C(=O)N[C@H](C(=O)NCC(=O)N[C@@H](CO)C(=O)NCC(=O)N[C@@H](CO)C(=O)N[C@@H](Cc1ccc(O)cc1)C(N)=O)[C@@H](C)O)[C@@H](C)O)[C@@H](C)O
